Legend:
[1] = target: H1 (A/Cali/09/2007); assay: ELISA
[2] = target: H3 (A/Brisbane/10/2007) (influenza A virus H3 …); assay: ELISA

B1: VH 8 / VL 3 (antibody, V domains shown)
VH: EVQLLESGGGLVQPGGSLRLSCAASGFTFSSYAMHWVRQAPGKGLEWVAVISYDANYKYYADSVKGRFTISRDNSKNTLYLQMNSLRAEDTAVYYCAKDSRLRSLLYFEWLSQGYFDYWGQGTLVTVSS
VL: DIQMTQSPSSLSASVGDRVTITCRSSQSITFDYKNYLAWYQQKPGKAPKLLIYAASSLQSGVPSRFSGSGSGTDFTLTISSLQPEDFATYYCQQHYRTPPSFGQGTKVEIK
B1 showed an EC50 [1] of 0.0218 nM and an EC50 [2] of 0.0286 nM.

B2: VH 3 / VL 6 (antibody, V domains shown)
VH: QVQLVESGGGVVQPGRSLRLSCAASGFTFSTYAMHWVRQAPGKGLEWVAVISYDANYKYYADSVKGRFTISRDNSKNTLYLQMNSLRAEDTAVYYCAKDSQLRSLLYFEWLSQGYFDYWGQGTLVTVSS
VL: EIVMTQSPATLSVSPGERATLSCRSSQSITFDYKNYLAWYQQKPGQAPRLLIYWGSTRATGIPARFSGSGSGTEFTLTISSLQSEDFAVYYCQQHYRTPPSFGQGTKVEIK
With B2 the EC50 [1] was 0.0268 nM and the EC50 [2] was 0.0313 nM.

B3: VH 8 / VL 6 (antibody, V domains shown)
VH: EVQLLESGGGLVQPGGSLRLSCAASGFTFSSYAMHWVRQAPGKGLEWVAVISYDANYKYYADSVKGRFTISRDNSKNTLYLQMNSLRAEDTAVYYCAKDSRLRSLLYFEWLSQGYFDYWGQGTLVTVSS
VL: EIVMTQSPATLSVSPGERATLSCRSSQSITFDYKNYLAWYQQKPGQAPRLLIYWGSTRATGIPARFSGSGSGTEFTLTISSLQSEDFAVYYCQQHYRTPPSFGQGTKVEIK
Binder B3 has an EC50 [1] of 0.0269 nM and an EC50 [2] of 0.0261 nM.

B4: VH 8 / VL 7 (antibody, V domains shown)
VH: EVQLLESGGGLVQPGGSLRLSCAASGFTFSSYAMHWVRQAPGKGLEWVAVISYDANYKYYADSVKGRFTISRDNSKNTLYLQMNSLRAEDTAVYYCAKDSRLRSLLYFEWLSQGYFDYWGQGTLVTVSS
VL: EIVMTQSPATLSVSPGERATLSCRSSQSITFDYKNYLAWYQQKPGQAPRLLIYSASTRATGIPARFSGSGSGTEFTLTISSLQSEDFAVYYCQQHYRTPPSFGQGTKVEIK
For B4, the EC50 [1] was 0.0318 nM and the EC50 [2] was 0.0356 nM.

B5: VH 7 / VL 6 (antibody, V domains shown)
VH: EVQLLESGGGLVQPGGSLRLSCAASGFTFSSYAMHWVRQAPGKGLEWVSVISYDANYKYYADSVKGRFTISRDNSKNTLYLQMNSLRAEDTAVYYCAKDSQLRSLLYFEWLSQGYFDYWGQGTTLTVSS
VL: EIVMTQSPATLSVSPGERATLSCRSSQSITFDYKNYLAWYQQKPGQAPRLLIYWGSTRATGIPARFSGSGSGTEFTLTISSLQSEDFAVYYCQQHYRTPPSFGQGTKVEIK
B5 was tested, and the EC50 [1] was 0.0239 nM and the EC50 [2] was 0.274 nM.

B6: VH 3 / VL 3 (antibody, V domains shown)
VH: QVQLVESGGGVVQPGRSLRLSCAASGFTFSTYAMHWVRQAPGKGLEWVAVISYDANYKYYADSVKGRFTISRDNSKNTLYLQMNSLRAEDTAVYYCAKDSQLRSLLYFEWLSQGYFDYWGQGTLVTVSS
VL: DIQMTQSPSSLSASVGDRVTITCRSSQSITFDYKNYLAWYQQKPGKAPKLLIYAASSLQSGVPSRFSGSGSGTDFTLTISSLQPEDFATYYCQQHYRTPPSFGQGTKVEIK
B6 showed an EC50 [1] of 0.0246 nM and an EC50 [2] of 0.0386 nM.

B7: VH 3 / VL 2 (antibody, V domains shown)
VH: QVQLVESGGGVVQPGRSLRLSCAASGFTFSTYAMHWVRQAPGKGLEWVAVISYDANYKYYADSVKGRFTISRDNSKNTLYLQMNSLRAEDTAVYYCAKDSQLRSLLYFEWLSQGYFDYWGQGTLVTVSS
VL: DIQMTQSPSSLSASVGDRVTITCRSSQSITFDYKNYLAWYQQKPGKAPKLLIYWGSSLQSGVPSRFSGSGSGTDFTLTISSLQPEDFATYYCQQHYRTPPSFGQGTKVEIK
Work on B7 yielded an EC50 [1] of 0.019 nM and an EC50 [2] of 0.0313 nM.

B8: VH 5 / VL 2 (antibody, V domains shown)
VH: QVQLVESGGGVVQPGRSLRLSCAASGFTFSTYAMHWVRQAPGKGLEWVCVISYDANYKYYADSVKGRFTCSRDNSKNTLYLQMNSLRAEDTAVYYCARDSRLRSLLYFEWLSQGYFDYWGQGTLVTVSS
VL: DIQMTQSPSSLSASVGDRVTITCRSSQSITFDYKNYLAWYQQKPGKAPKLLIYWGSSLQSGVPSRFSGSGSGTDFTLTISSLQPEDFATYYCQQHYRTPPSFGQGTKVEIK
For B8, the EC50 [1] was 0.0231 nM and the EC50 [2] was 0.0219 nM.

B9: VH 5 / VL 4 (antibody, V domains shown)
VH: QVQLVESGGGVVQPGRSLRLSCAASGFTFSTYAMHWVRQAPGKGLEWVCVISYDANYKYYADSVKGRFTCSRDNSKNTLYLQMNSLRAEDTAVYYCARDSRLRSLLYFEWLSQGYFDYWGQGTLVTVSS
VL: DIVMTQSPDSLAVSLGERATINCKSSQSVTFDYKNYLAWYQQKPGQPPKLLIYWASTRESGVPDRFSGSGSGTDFTLTISSLQAEDVAVYYCQQHYRTPPSFGQGTKVEIK
B9 was tested, and the EC50 [1] was 0.0285 nM and the EC50 [2] was 0.0268 nM.

B10: VH 10 / VL 2 (antibody, V domains shown)
VH: QVQLVQSGAEVKKPGSSVKVSCKASGFTFSTYAIHWVRQAPGQGLEWMGVISYDANYKYYAQKFQGRVTITRDNSKSTAYMELSSLRSEDTAVYYCARDSRLRSLLYFEWLSQGYFDYWGQGTTLTVSS
VL: DIQMTQSPSSLSASVGDRVTITCRSSQSITFDYKNYLAWYQQKPGKAPKLLIYWGSSLQSGVPSRFSGSGSGTDFTLTISSLQPEDFATYYCQQHYRTPPSFGQGTKVEIK
B10 showed an EC50 [1] of 0.0227 nM and an EC50 [2] of 0.0412 nM.

B11: VH 12 / VL 2 (antibody, V domains shown)
VH: QVQLVQSGAEVKKPGASVKVSCKASGFTFSTYAINWVRQATGQGLEWMGVISYDANYKYYAQKFQGRVTMTRDTSISTAYMELSSLRSEDTAVYYCARDSQLRSLLYFEWLSQGYFDYWGQGTTLTVSS
VL: DIQMTQSPSSLSASVGDRVTITCRSSQSITFDYKNYLAWYQQKPGKAPKLLIYWGSSLQSGVPSRFSGSGSGTDFTLTISSLQPEDFATYYCQQHYRTPPSFGQGTKVEIK
B11 was tested, and the EC50 [1] was 0.0161 nM and the EC50 [2] was 88.9 nM.

B12: VH 6 / VL 2 (antibody, V domains shown)
VH: QVQLVESGGGVVQPGRSLRLSCAASGFTFDTYAMHWVRQAPGKGLEWVAVISYDANYKYYADSVKGRFTISRDNSKNTLYLQMNSLRAEDTAVYYCARDSRLRSLLYFEWLSQGYFDYWGQGTLVTVSS
VL: DIQMTQSPSSLSASVGDRVTITCRSSQSITFDYKNYLAWYQQKPGKAPKLLIYWGSSLQSGVPSRFSGSGSGTDFTLTISSLQPEDFATYYCQQHYRTPPSFGQGTKVEIK
Work on B12 yielded an EC50 [1] of 0.0207 nM and an EC50 [2] of 0.108 nM.

B13: VH 5 / VL 6 (antibody, V domains shown)
VH: QVQLVESGGGVVQPGRSLRLSCAASGFTFSTYAMHWVRQAPGKGLEWVCVISYDANYKYYADSVKGRFTCSRDNSKNTLYLQMNSLRAEDTAVYYCARDSRLRSLLYFEWLSQGYFDYWGQGTLVTVSS
VL: EIVMTQSPATLSVSPGERATLSCRSSQSITFDYKNYLAWYQQKPGQAPRLLIYWGSTRATGIPARFSGSGSGTEFTLTISSLQSEDFAVYYCQQHYRTPPSFGQGTKVEIK
In the case of B13, the EC50 [1] is reported as 0.0317 nM and the EC50 [2] is reported as 0.0295 nM.

B14: VH 10 / VL 6 (antibody, V domains shown)
VH: QVQLVQSGAEVKKPGSSVKVSCKASGFTFSTYAIHWVRQAPGQGLEWMGVISYDANYKYYAQKFQGRVTITRDNSKSTAYMELSSLRSEDTAVYYCARDSRLRSLLYFEWLSQGYFDYWGQGTTLTVSS
VL: EIVMTQSPATLSVSPGERATLSCRSSQSITFDYKNYLAWYQQKPGQAPRLLIYWGSTRATGIPARFSGSGSGTEFTLTISSLQSEDFAVYYCQQHYRTPPSFGQGTKVEIK
In the case of B14, the EC50 [1] is reported as 0.0175 nM and the EC50 [2] is reported as 0.0695 nM.

B15: VH 9 / VL 4 (antibody, V domains shown)
VH: QVQLVQSGAEVKKPGSSVKVSCKASGFTFSTYAIHWVRQAPGQGLEWMGVISYDANYKYYAQKFQGRVTITRDNSKSTAYMELSSLRSEDTAVYYCAKDSQLRSLLYFEWLSQGYFDYWGQGTTLTVSS
VL: DIVMTQSPDSLAVSLGERATINCKSSQSVTFDYKNYLAWYQQKPGQPPKLLIYWASTRESGVPDRFSGSGSGTDFTLTISSLQAEDVAVYYCQQHYRTPPSFGQGTKVEIK
B15 showed an EC50 [1] of 0.0186 nM and an EC50 [2] of 0.0608 nM.

B16: VH 11 / VL 4 (antibody, V domains shown)
VH: QVQLVQSGAEVKKPGASVKVSCKASGFTFSTYAINWVRQATGQGLEWMGWISYDANYKYYAQKFQGRVTMTRDTSISTAYMELSSLRSEDTAVYYCAKDSQLRSLLYFEWLSQGYFDYWGQGTTLTVSS
VL: DIVMTQSPDSLAVSLGERATINCKSSQSVTFDYKNYLAWYQQKPGQPPKLLIYWASTRESGVPDRFSGSGSGTDFTLTISSLQAEDVAVYYCQQHYRTPPSFGQGTKVEIK
Binder B16 has an EC50 [1] of 0.0244 nM and an EC50 [2] of 112 nM.

B17: VH 10 / VL 4 (antibody, V domains shown)
VH: QVQLVQSGAEVKKPGSSVKVSCKASGFTFSTYAIHWVRQAPGQGLEWMGVISYDANYKYYAQKFQGRVTITRDNSKSTAYMELSSLRSEDTAVYYCARDSRLRSLLYFEWLSQGYFDYWGQGTTLTVSS
VL: DIVMTQSPDSLAVSLGERATINCKSSQSVTFDYKNYLAWYQQKPGQPPKLLIYWASTRESGVPDRFSGSGSGTDFTLTISSLQAEDVAVYYCQQHYRTPPSFGQGTKVEIK
B17 gave an EC50 [1] of 0.0181 nM and an EC50 [2] of 0.0241 nM.
